We go through one molecule from US20030200555A1.

The assay concerns the target 2081/anti-NF IgG. The assay can be described thus: ECL (ORIGEN Analyzer), competition with biotinylated-SEVNF.

Molecule SEVNL [SEVNL peptide] gave a fold less effective in competition than SEVNF of 100 fold.
